Earlier results as cited in PMC4310935.

Target: GLP-1 receptor (Mus musculus) (UniProt O35659)
Sequence of UniProt O35659 (O35659 22-463): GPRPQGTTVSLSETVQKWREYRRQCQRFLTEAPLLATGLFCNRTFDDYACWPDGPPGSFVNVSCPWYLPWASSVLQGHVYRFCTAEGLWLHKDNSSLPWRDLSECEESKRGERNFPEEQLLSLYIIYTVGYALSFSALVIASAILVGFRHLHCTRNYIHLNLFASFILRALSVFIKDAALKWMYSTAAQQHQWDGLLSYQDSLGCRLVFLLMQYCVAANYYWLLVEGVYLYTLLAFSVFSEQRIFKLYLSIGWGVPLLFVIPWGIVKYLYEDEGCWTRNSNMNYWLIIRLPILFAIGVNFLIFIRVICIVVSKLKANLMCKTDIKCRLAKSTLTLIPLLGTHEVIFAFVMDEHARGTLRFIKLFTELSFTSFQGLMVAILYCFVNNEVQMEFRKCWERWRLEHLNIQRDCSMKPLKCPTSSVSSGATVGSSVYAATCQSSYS

Sequence of GLP-1 (P55095 98-127): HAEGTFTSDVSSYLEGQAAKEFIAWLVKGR

Question: With GLP-1 (from UniProt P55095) as the substance, how does the Kd read?
Answer: Its Kd is 0.5 nM.
